According to PMC12753105:

What was measured:
[1] = biological target: T1, N (ancestral) (SARS-CoV-2 (Wuhan-Hu-1), UniProt P0DTC9 1-419); test: SV-AUC; […], pH 7.50 ([…], pH 7.4; temperature not given; settings: protein: recombinant; tags: 6xHis-TEV, cleaved; chain copies: 2; single strand
[2] = biological target: T1, N (ancestral); test: SV-AUC, mass photometry; […], pH 7.50 ([…], pH 7.4; temperature not given; settings: protein: recombinant; tags: 6xHis-TEV, cleaved; chain copies: 2; hairpin

Binder	binding result [1]	binding result [2]
TTTTTTTTTT (ssDNA) [T10]	binds	–
ACGUGGCUUUGGAGACUCCGUGGAGGAGGUCUUAUCAGAGGCACGU (structured_RNA) [SL7]	–	binds
